Earlier results on two compounds are cited in patent publication US20250064829A1, “METHODS OF USING ANTI-CD79B IMMUNOCONJUGATES TO TREAT DIFFUSE LARGE B-CELL LYMPHOMA” (Genentech, Inc., priority 2019, published 2025).

The conditions of data set [1]: 1000 mg/m^2 at fixed dose rate of 10 mg/m^2/min compared to the standard 30-minute IV schedule.
Data set [2] deals with T1, human CD20 antigen (Homo sapiens, UniProt P11836).
T1 sequence (P11836 1-297): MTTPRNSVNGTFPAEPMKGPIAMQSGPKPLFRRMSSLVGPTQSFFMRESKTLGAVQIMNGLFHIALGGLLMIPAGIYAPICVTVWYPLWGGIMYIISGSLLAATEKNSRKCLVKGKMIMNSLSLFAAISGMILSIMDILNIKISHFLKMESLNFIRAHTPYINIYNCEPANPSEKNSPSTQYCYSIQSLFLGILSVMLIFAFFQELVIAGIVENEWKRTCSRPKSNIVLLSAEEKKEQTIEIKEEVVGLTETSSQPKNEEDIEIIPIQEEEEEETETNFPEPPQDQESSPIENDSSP
The following applies: in vitro mechanism of action studies (Reff et al. 1994).

The target in data set [3] is T1, human CD20 antigen. The settings on record: in vitro.

For `Cl.Nc1ccn([C@@H]2O[C@H](CO)[C@@H](O)C2(F)F)c(=O)n1` [gemcitabine, 2′-deoxy-2′,2′-difluorocytidine monohydrochloride], the intracellular drug concentrations result in data set [1] is “superior intracellular drug concentrations”. Consider “rituximab: anti-CD20 antibody having the CAS Registry Number 174722-31-7; type I anti-CD20 antibody”, for which the “human complement-dependent cytotoxicity (CDC)” value with human CD20 antigen [2] is “exhibits human complement-dependent cytotoxicity (CDC)”. Also, in the data set with human CD20 antigen [3], the “activity in assays that measure antibody-dependent cellular cytotoxicity (ADCC)” value is listed as “exhibits activity”.
